B1: CPEB3 Ribozyme (parent)
chain: GGGGGCCACAGCAGAAGCGUUCACGUCGCGGCCCCUGUCAGAUUCUGGUGAAUCUGCGAAUUCUGCUGU

Variants of: B1
Experiment: self-cleavage, relative activity (ratio to wild type); higher = more cleavage; co-transcriptional

Variant | self-cleavage
G37U | 0.319
U36G A40G | 0.219
U36G A40C | 0.236
G37C G47U | 0.209
G37C G47A | 0.189
U36C G41C | 0.552
U36C G41A | 0.507
U36C G41U | 0.664
U36C U64G | 0.762
U36C U64C | 0.823
G37C U55G | 0.236
G37C U55A | 0.25
G37C U55C | 0.267
U36C G50C | 0.895
U36C A51C | 0.88
U36C A51U | 0.879
U36C G58U | 0.963
G37C C63G | 0.25
G37C C63A | 0.261
G37C C63U | 0.281
U36G G50U | 0.306

Variant | self-cleavage
G37U G58C | 0.279
G37U G58U | 0.362
U36G U62C | 0.21
G37U U61C | 0.21
G37U U61G | 0.152
U36C C39G | 0.847
G37C C54A | 0.201
G37C C54U | 0.25
U36C C45G | 0.866
U36C C45A | 0.865
G37U G47U | 0.365
G37U G47C | 0.352
U36C U69G | 1.02
U36C U69C | 1.05
G37C C45U | 0.203
G37C C45A | 0.168
G37U G65A | 0.234
G37U G65U | 0.265
G37C G58A | 0.242
G37C G58C | 0.277
G37C G58U | 0.353

Variant | self-cleavage
G37A U43A | 0.261
G37A U43C | 0.261
G37A U43G | 0.359
G37U G41C | 0.139
G37U G41A | 0.244
U36G U43C | 0.268
U36G U43A | 0.26
U36G U43G | 0.231
U36G C63G | 0.181
U36G C63U | 0.315
U38A A51U | 0.84
G37U C57A | 0.174
G37U C57U | 0.264
U36C A59G | 0.962
U36C A59C | 0.42
U36C A59U | 0.448
U36C A40U | 0.64
U36G C39G | 0.24
U36G C39A | 0.204
U36G C39U | 0.218
U36G C57G | 0.109

Variant | self-cleavage
U36G G41C | 0.278
U36G G41U | 0.373
U36G G41A | 0.144
G37U U62A | 0.227
G37U U62G | 0.332
U36G G47C | 0.293
U36G G47A | 0.252
G37A C57G | 0.241
G37A C57U | 0.247
G37A C57A | 0.217
U36G U69A | 0.297
U36G U61A | 0.341
U36G A52G | 0.296
U36G A52U | 0.271
U36G A52C | 0.318
G37A A51U | 0.285
U36C G47U | 0.892
U36C G47A | 0.953
U36C G47C | 0.993
U36C A42U | 0.869
U36C A42C | 0.732
